This note sets out measurements from the supplement of paper PMC9112550, “Optimization of the antimicrobial peptide Bac7 by deep mutational scanning” (BMC Biology, 2022).

This series deals with Escherichia coli TOP10. The series can be described thus: shrunken log2 fold change of peptide-encoding DNA abundance (4.5 h post-induction vs induction); higher = less antimicrobial activity (less host growth inhibition). Conditions: time post-induction: 4.5 h; library: site-saturation at positions 5, 18, 19, 20.
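Also: peptides expressed intracellularly from a pBAD plasmid library in pooled LB shake-flask culture, induced with 0.3% L-arabinose, DNA abundance read by NGS, three biological replicates, DESeq2 with apeglm shrinkage.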

Take RRIRHRPPRLPRPRPRPPQEPRP: the “shrunken log2 fold change” value is -0.0115.

With RRIRGRPPRLPRPRPRPKYAPRP, the “shrunken log2 fold change” value came out at 0.501.

Turning to RRIRVRPPRLPRPRPRPWSFPRP, the “shrunken log2 fold change” value is -0.225.

With RRIRTRPPRLPRPRPRPGLNPRP, the “shrunken log2 fold change” value is -0.213.

As for RRIRYRPPRLPRPRPRPPQVPRP, the “shrunken log2 fold change” value is -0.0496.

In the case of RRIRDRPPRLPRPRPRPNVSPRP, the “shrunken log2 fold change” value was -0.00783.

RRIRCRPPRLPRPRPRPKISPRP: the “shrunken log2 fold change” value was -0.712.

For the sequence RRIRYRPPRLPRPRPRPIFYPRP, the “shrunken log2 fold change” value is -0.638.

RRIRVRPPRLPRPRPRPYCDPRP: the “shrunken log2 fold change” value is -0.348.

In the case of RRIRARPPRLPRPRPRPSGEPRP, the “shrunken log2 fold change” value was 0.65.

In the case of RRIRARPPRLPRPRPRPVCRPRP, the “shrunken log2 fold change” value stood at 0.505.

For the sequence RRIRSRPPRLPRPRPRPRWYPRP, the “shrunken log2 fold change” value was -0.402.

In the case of RRIRARPPRLPRPRPRPNENPRP, the “shrunken log2 fold change” value was determined as 0.177.

As for RRIRSRPPRLPRPRPRPPGLPRP, the “shrunken log2 fold change” value stood at 0.348.

Consider RRIRFRPPRLPRPRPRPSPQPRP, for which the “shrunken log2 fold change” value came out at 0.0415.

On to RRIRSRPPRLPRPRPRPIAQPRP, for which the “shrunken log2 fold change” value is -0.0267.

For the sequence RRIRLRPPRLPRPRPRPLSWPRP, the “shrunken log2 fold change” value stood at 0.0186.

As to RRIRKRPPRLPRPRPRPMGNPRP, the “shrunken log2 fold change” value was found to be 0.111.

In the case of RRIRERPPRLPRPRPRPQMGPRP, the “shrunken log2 fold change” value was -0.115.

As for RRIRNRPPRLPRPRPRPECKPRP, the “shrunken log2 fold change” value was 0.0615.

Take RRIRKRPPRLPRPRPRPQPYPRP: the “shrunken log2 fold change” value is -0.157.

With RRIRIRPPRLPRPRPRPWDEPRP, the “shrunken log2 fold change” value is -0.156.

In the case of RRIRHRPPRLPRPRPRPAWCPRP, the “shrunken log2 fold change” value was found to be 0.081.

Turning to RRIRERPPRLPRPRPRPVYMPRP, the “shrunken log2 fold change” value is -0.481.

With RRIRGRPPRLPRPRPRPDNCPRP, the “shrunken log2 fold change” value was -0.0626.

RRIRRRPPRLPRPRPRPETPPRP: the “shrunken log2 fold change” value amounted to 1.12.

Consider RRIRTRPPRLPRPRPRPGPHPRP, for which the “shrunken log2 fold change” value is 0.124.

Consider RRIRTRPPRLPRPRPRPGWPPRP, for which the “shrunken log2 fold change” value was determined as 0.576.

RRIRCRPPRLPRPRPRPGNYPRP: the “shrunken log2 fold change” value is -0.516.

As to RRIRVRPPRLPRPRPRPYQIPRP, the “shrunken log2 fold change” value is 0.043.

In the case of RRIRPRPPRLPRPRPRPSHSPRP, the “shrunken log2 fold change” value is -0.368.

For RRIRCRPPRLPRPRPRPEDPPRP, the “shrunken log2 fold change” value stood at 0.779.

As for RRIRHRPPRLPRPRPRPFASPRP, the “shrunken log2 fold change” value is -0.182.

RRIRWRPPRLPRPRPRPDTGPRP: the “shrunken log2 fold change” value is -0.373.

With RRIRYRPPRLPRPRPRPWKIPRP, the “shrunken log2 fold change” value was -0.245.

On to RRIRCRPPRLPRPRPRPWLQPRP, for which the “shrunken log2 fold change” value is -0.199.

On to RRIRHRPPRLPRPRPRPSCCPRP, for which the “shrunken log2 fold change” value is -0.343.

Consider RRIRKRPPRLPRPRPRPNGGPRP, for which the “shrunken log2 fold change” value stood at 0.0116.

Consider RRIRWRPPRLPRPRPRPSCDPRP, for which the “shrunken log2 fold change” value turned out to be 0.574.

As to RRIRERPPRLPRPRPRPSRQPRP, the “shrunken log2 fold change” value was -0.214.

For RRIRMRPPRLPRPRPRPYTQPRP, the “shrunken log2 fold change” value was -0.149.

As to RRIRMRPPRLPRPRPRPDCWPRP, the “shrunken log2 fold change” value was found to be 1.96.

Regarding RRIRLRPPRLPRPRPRPWGMPRP, the “shrunken log2 fold change” value is -0.0457.

Consider RRIRHRPPRLPRPRPRPQRDPRP, for which the “shrunken log2 fold change” value is 0.000147.

Regarding RRIRDRPPRLPRPRPRPWGAPRP, the “shrunken log2 fold change” value was determined as 0.305.

RRIRRRPPRLPRPRPRPMRPPRP: the “shrunken log2 fold change” value came out at 0.66.

RRIRWRPPRLPRPRPRPMKGPRP: the “shrunken log2 fold change” value was -0.363.

For RRIRCRPPRLPRPRPRPQEPPRP, the “shrunken log2 fold change” value was 0.359.

With RRIRFRPPRLPRPRPRPKSFPRP, the “shrunken log2 fold change” value is -0.0388.

For the sequence RRIRKRPPRLPRPRPRPMNLPRP, the “shrunken log2 fold change” value was -0.223.

Turning to RRIRFRPPRLPRPRPRPRPNPRP, the “shrunken log2 fold change” value was determined as 0.4.

Take RRIRTRPPRLPRPRPRPKKIPRP: the “shrunken log2 fold change” value is -0.437.

For RRIRRRPPRLPRPRPRPKVYPRP, the “shrunken log2 fold change” value is -0.0919.

On to RRIRKRPPRLPRPRPRPYFAPRP, for which the “shrunken log2 fold change” value is -0.0674.

Take RRIRKRPPRLPRPRPRPIINPRP: the “shrunken log2 fold change” value turned out to be 0.172.

For the sequence RRIRGRPPRLPRPRPRPETTPRP, the “shrunken log2 fold change” value was determined as 2.32.

Consider RRIRCRPPRLPRPRPRPPMCPRP, for which the “shrunken log2 fold change” value was -0.23.

On to RRIRTRPPRLPRPRPRPPFSPRP, for which the “shrunken log2 fold change” value amounted to 0.0411.

RRIRMRPPRLPRPRPRPPMNPRP: the “shrunken log2 fold change” value came out at 0.315.

Turning to RRIRVRPPRLPRPRPRPLAWPRP, the “shrunken log2 fold change” value came out at 0.0442.

On to RRIRYRPPRLPRPRPRPDDHPRP, for which the “shrunken log2 fold change” value is -0.264.

With RRIRCRPPRLPRPRPRPRCVPRP, the “shrunken log2 fold change” value is -0.0609.

Regarding RRIRMRPPRLPRPRPRPSKIPRP, the “shrunken log2 fold change” value is -0.0332.

With RRIRTRPPRLPRPRPRPNINPRP, the “shrunken log2 fold change” value was -0.812.

With RRIRIRPPRLPRPRPRPVYWPRP, the “shrunken log2 fold change” value was -0.208.

Take RRIRDRPPRLPRPRPRPPIFPRP: the “shrunken log2 fold change” value is -0.129.

As to RRIRVRPPRLPRPRPRPDGHPRP, the “shrunken log2 fold change” value was -0.00145.

In the case of RRIRKRPPRLPRPRPRPILIPRP, the “shrunken log2 fold change” value is 0.0193.

For RRIRNRPPRLPRPRPRPMSRPRP, the “shrunken log2 fold change” value was -0.094.

As to RRIRFRPPRLPRPRPRPIGWPRP, the “shrunken log2 fold change” value was -0.0252.

Consider RRIRIRPPRLPRPRPRPTQIPRP, for which the “shrunken log2 fold change” value came to 0.245.

With RRIRARPPRLPRPRPRPESAPRP, the “shrunken log2 fold change” value is 0.858.

Consider RRIRCRPPRLPRPRPRPTYCPRP, for which the “shrunken log2 fold change” value is -0.279.

With RRIRQRPPRLPRPRPRPQICPRP, the “shrunken log2 fold change” value is -0.229.

On to RRIRKRPPRLPRPRPRPVNWPRP, for which the “shrunken log2 fold change” value turned out to be 0.192.

On to RRIRDRPPRLPRPRPRPRIFPRP, for which the “shrunken log2 fold change” value was -0.0459.

Regarding RRIRARPPRLPRPRPRPQPKPRP, the “shrunken log2 fold change” value stood at 0.465.

With RRIRIRPPRLPRPRPRPPDEPRP, the “shrunken log2 fold change” value was -0.0174.

Take RRIRGRPPRLPRPRPRPNERPRP: the “shrunken log2 fold change” value amounted to 0.108.

On to RRIRKRPPRLPRPRPRPSPPPRP, for which the “shrunken log2 fold change” value is 0.305.

On to RRIRFRPPRLPRPRPRPFQIPRP, for which the “shrunken log2 fold change” value was -0.0567.

For the sequence RRIRRRPPRLPRPRPRPAATPRP, the “shrunken log2 fold change” value was determined as 0.335.

With RRIRYRPPRLPRPRPRPHFCPRP, the “shrunken log2 fold change” value is -0.428.

RRIRKRPPRLPRPRPRPHIPPRP: the “shrunken log2 fold change” value is -0.247.

On to RRIRWRPPRLPRPRPRPNSTPRP, for which the “shrunken log2 fold change” value is -0.326.

As for RRIRRRPPRLPRPRPRPCQIPRP, the “shrunken log2 fold change” value was -0.211.

On to RRIRTRPPRLPRPRPRPQCKPRP, for which the “shrunken log2 fold change” value is -0.26.

As for RRIRLRPPRLPRPRPRPLHMPRP, the “shrunken log2 fold change” value is -0.112.

With RRIRVRPPRLPRPRPRPCLKPRP, the “shrunken log2 fold change” value is -0.469.

RRIRQRPPRLPRPRPRPDRWPRP: the “shrunken log2 fold change” value worked out at 0.37.

RRIRARPPRLPRPRPRPWMYPRP: the “shrunken log2 fold change” value is -0.794.

Regarding RRIRIRPPRLPRPRPRPFTVPRP, the “shrunken log2 fold change” value is -0.214.

On to RRIRVRPPRLPRPRPRPTWAPRP, for which the “shrunken log2 fold change” value is 0.194.

As for RRIRLRPPRLPRPRPRPDKCPRP, the “shrunken log2 fold change” value was -0.0114.

Take RRIRKRPPRLPRPRPRPQCPPRP: the “shrunken log2 fold change” value was -0.000549.

With RRIRYRPPRLPRPRPRPPGKPRP, the “shrunken log2 fold change” value turned out to be 0.157.

With RRIRMRPPRLPRPRPRPMIHPRP, the “shrunken log2 fold change” value was -0.106.

As for RRIRNRPPRLPRPRPRPKPQPRP, the “shrunken log2 fold change” value came to 0.41.

On to RRIRKRPPRLPRPRPRPGNAPRP, for which the “shrunken log2 fold change” value worked out at 0.418.

Turning to RRIRWRPPRLPRPRPRPTLWPRP, the “shrunken log2 fold change” value was 0.611.

Consider RRIRFRPPRLPRPRPRPLPPPRP, for which the “shrunken log2 fold change” value stood at 0.828.

As to RRIRQRPPRLPRPRPRPLSWPRP, the “shrunken log2 fold change” value turned out to be 0.485.

As to RRIRCRPPRLPRPRPRPSEKPRP, the “shrunken log2 fold change” value is -0.188.

Consider RRIRGRPPRLPRPRPRPDLKPRP, for which the “shrunken log2 fold change” value came out at 0.0305.

In the case of RRIRFRPPRLPRPRPRPDLTPRP, the “shrunken log2 fold change” value was -0.181.

With RRIRGRPPRLPRPRPRPIYIPRP, the “shrunken log2 fold change” value was -0.0529.

RRIRHRPPRLPRPRPRPNWQPRP: the “shrunken log2 fold change” value is -0.0282.

Turning to RRIRGRPPRLPRPRPRPMQEPRP, the “shrunken log2 fold change” value stood at 0.161.

For RRIRCRPPRLPRPRPRPQQVPRP, the “shrunken log2 fold change” value was -0.29.

RRIRDRPPRLPRPRPRPHFFPRP: the “shrunken log2 fold change” value is 0.152.

On to RRIRHRPPRLPRPRPRPGLPPRP, for which the “shrunken log2 fold change” value was found to be 0.118.

With RRIRNRPPRLPRPRPRPRIMPRP, the “shrunken log2 fold change” value was -0.337.

For RRIRSRPPRLPRPRPRPEKYPRP, the “shrunken log2 fold change” value was -1.28.

Consider RRIRKRPPRLPRPRPRPLDFPRP, for which the “shrunken log2 fold change” value worked out at 0.188.

Regarding RRIRVRPPRLPRPRPRPYLIPRP, the “shrunken log2 fold change” value was 0.0388.

For RRIRFRPPRLPRPRPRPIMFPRP, the “shrunken log2 fold change” value was -0.0164.

As to RRIRDRPPRLPRPRPRPNYRPRP, the “shrunken log2 fold change” value is -0.152.

As for RRIRGRPPRLPRPRPRPQSQPRP, the “shrunken log2 fold change” value was determined as 0.139.

As for RRIRARPPRLPRPRPRPWPHPRP, the “shrunken log2 fold change” value is -0.0357.

On to RRIRQRPPRLPRPRPRPRKWPRP, for which the “shrunken log2 fold change” value worked out at 0.832.

Regarding RRIRTRPPRLPRPRPRPKDTPRP, the “shrunken log2 fold change” value is -0.076.

RRIRCRPPRLPRPRPRPVLYPRP: the “shrunken log2 fold change” value was -0.432.

As to RRIRWRPPRLPRPRPRPLLGPRP, the “shrunken log2 fold change” value was found to be 0.875.

With RRIRERPPRLPRPRPRPWVSPRP, the “shrunken log2 fold change” value was -0.0377.

In the case of RRIRHRPPRLPRPRPRPTIEPRP, the “shrunken log2 fold change” value was -0.0518.
